Where a chain is given by its changes, count along the chain named. Names and notes keep the numbering of the source.
B1: v37664 (bispecific antibody)
heavy: QVQLVESGGGLVQPGGSLRLSCSVSGIDLSSNPMIWVRQAPGKGLQYIGIIDTDGSTYYADWAKGRFTISKDSTTVYLQINSPRAEDTAVYYCARRLHGSSNGYYDDLWGQGTLVTVSSGGGGSGGGGSGGGGSGGGGSDGQMTQSPSSVSASVGDRVTITCQASQSIYSYLSWYQQKPGQRPKLLIYKASTLASGVPSRFSGSGSGTDFTLTISSVQPEDFATYYCQQGYTVTNVDKNTFGGGTKVEIKGGGGSGEVQLVESGGGLVQPGGSLRLSCAASGVTFNYYGMSWIRQAPGKGLEWVASITSSGGRIYYPDSVKGRFTISRENTQKTLYLQMNSLRAEDTAVYYCTLDGRDGWVAYWGQGTLVTVSSASTKGPSVFPLAPSSKSTSGGTAALGCLVKDYFPEPVTVSWNSGALTSGVHTFPAVLQSSGLYSLSSVVTVPSSSLGTQTYICNVNHKPSNTKVDKKVEPKSCDKTHTCPPCPAPEAAGGPSVFLFPPKPKDTLMISRTPEVTCVVVSVSHEDPEVKFNWYVDGVEVHNAKTKPREEQYNSTYRVVSVLTVLHQDWLNGKEYKCKVSNKALPAPIEKTISKAKGQPREPQVYVLPPSRDELTKNQVSLLCLVKGFYPSDIAVEWESNGQPENNYLTWPPVLDSDGSFFLYSKLTVDKSRWQQGNVFSCSVMHEALHNHYTQKSLSLSPG
light: NFMLTQPHSVSESPGKTVTISCKRNTGNIGSNYVNWYQQHEGSSPTTIIYRNDKRPDGVSDRFSGSIDRSSKSASLTISNLKTEDEADYFCQSYSSGFIFGGGTKLTVLGQPKAAPSVTLFPPSSEELQANKATLVCLISDFYPGAVTVAWKADSSPVKAGVETTTPSKQSNNKYAASSYLSLTPEQWKSHRSYSCQVTHEGSTVEKTVAPTECS
Fc: not shown
notes: also called anti-(CLDN18.2xCD3) bispecific control
B2: v34891 (parental huTN228 OAA) (antibody, V domains shown)
VH: QVQLQESGPGLVKPSETLSLTCAVSGFSLTSYGVHWIRQPPGKGLEWLGVIWPGGGTNFNSALMSRLTISEDTSKNQVSLKLSSVTAADTAVYYCARDRAYGNYLYAMDYWGQGTLVTVSS
VL: DIQMTQSPSSLSASVGDRVTITCRASESVEYYVTSLMQWYQQKPGKAPKLLIYAASNVDSGVPSRFSGSGSGTDFTLTISSLQPEDIATYYCQQSRKVPFTFGGGTKVEIK
notes: one-arm Fab antibody (OAA) format; also called huTN228 parental one-arm Fab antibody
B3: v37879 (antibody, V domains shown)
VH: B2 VH
VL: B2 VL with V98A
notes: OAA format as v34891; also called huTN228 V1114A (VL) OAA
B4: v37876 (antibody, V domains shown)
VH: B2 VH
VL: B2 VL with S60A
notes: OAA format as v34891; also called huTN228 S1069A (VL) OAA
B5: v37869 (antibody, V domains shown)
VH: B2 VH
VL: B2 VL with V33A
notes: OAA format as v34891; also called huTN228 V1035A (VL) OAA
B6: v37845 (antibody, V domains shown)
VH: B2 VH with Y32A
VL: B2 VL
notes: OAA format; also called huTN228 Y1037A (VH) OAA
B7: v37854 (antibody, V domains shown)
VH: B2 VH with Y101A
VL: B2 VL
notes: OAA format as v34891; also called huTN228 Y1110A (VH) OAA
B8: v37888 (antibody, V domains shown)
VH: B2 VH
VL: B2 VL with N57Q
notes: OAA format as v34891; also called huTN228 N1066Q (VL) OAA
B9: v37890 (antibody, V domains shown)
VH: B2 VH with A23T
VL: B2 VL
notes: OAA format as v34891; also called huTN228 A1024T (VH) OAA
B10: v37856 (antibody, V domains shown)
VH: B2 VH with N103A
VL: B2 VL
notes: OAA format; also called huTN228 N1111AA (VH) OAA
B11: v37847 (antibody, V domains shown)
VH: B2 VH with P53A
VL: B2 VL
notes: OAA format; also called huTN228 P1058A (VH) OAA
B12: v37882 (antibody, V domains shown)
VH: B2 VH with S31T
VL: B2 VL
notes: OAA format as v34891; also called huTN228 S1036T (VH) OAA
B13: v37874 (antibody, V domains shown)
VH: B2 VH
VL: B2 VL with N57A
notes: OAA format; also called huTN228 N1066A (VL) OAA
B14: v37841 (antibody, V domains shown)
VH: B2 VH with S28A
VL: B2 VL
notes: OAA format as v34891; also called huTN228 S1029A (VH) OAA
B15: v37855 (antibody, V domains shown)
VH: B2 VH with G102A
VL: B2 VL
notes: OAA format as v34891; also called huTN228 G1111A (VH) OAA
B16: v37868 (antibody, V domains shown)
VH: B2 VH
VL: B2 VL with Y32A
notes: OAA format as v34891; also called huTN228 Y1034A (VL) OAA
B17: v37870 (antibody, V domains shown)
VH: B2 VH
VL: B2 VL with T34A
notes: OAA format as v34891; also called huTN228 T1036A (VL) OAA
B18: v37884 (antibody, V domains shown)
VH: B2 VH with L105I
VL: B2 VL
notes: OAA format as v34891; also called huTN228 L1112AI (VH) OAA
B19: v37851 (antibody, V domains shown)
VH: B2 VH with N58A
VL: B2 VL
notes: OAA format as v34891; also called huTN228 N1066A (VH) OAA
B20: v37883 (antibody, V domains shown)
VH: B2 VH with N103Q
VL: B2 VL
notes: OAA format as v34891; also called huTN228 N1111AQ (VH) OAA
B21: v37875 (antibody, V domains shown)
VH: B2 VH
VL: B2 VL with D59A
notes: OAA format as v34891; also called huTN228 D1068A (VL) OAA
B22: v37843 (antibody, V domains shown)
VH: B2 VH with T30A
VL: B2 VL
notes: OAA format as v34891; also called huTN228 T1035A (VH) OAA
B23: v37891 (antibody, V domains shown)
VH: B2 VH with L48I
VL: B2 VL
notes: OAA format as v34891; also called huTN228 L1053I (VH) OAA
B24: v37858 (antibody, V domains shown)
VH: B2 VH with L105A
VL: B2 VL
notes: OAA format as v34891; also called huTN228 L1112AA (VH) OAA
B25: v37878 (antibody, V domains shown)
VH: B2 VH
VL: B2 VL with K97A
notes: OAA format as v34891; also called huTN228 K1109A (VL) OAA
B26: v37844 (antibody, V domains shown)
VH: B2 VH with S31A
VL: B2 VL
notes: OAA format as v34891; also called huTN228 S1036A (VH) OAA
B27: v37897 (antibody, V domains shown)
VH: B2 VH with V78F
VL: B2 VL
notes: OAA format as v34891; also called huTN228 V1087F (VH) OAA
B28: v37898 (antibody, V domains shown)
VH: B2 VH
VL: B2 VL with M37L, Q38N
notes: OAA format as v34891

Legend:
[1] = target: T1, Recombinant human CD3 epsilon/delta heterodimer, his tag protein (Acro Biosystems) (human, UniProt P07766 23-126; P04234 22-105); test: SPR Biacore T200, CD3 e/d-his on CM5, construct injected, 1:1 model;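 further: measured at 25 °C in HEPES-buffered saline with EDTA and Tween 20 at pH 7.4, values are means of three independent runs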
T1 construct: bought

[2] = target: huCD28 (human, UniProt P10747 19-152, limits assumed); test: SPR, OAA format

Binder | Kd [1] [nM] | koff [1] [s⁻¹] | kon [1] [M⁻¹ s⁻¹] | Fold-change from WT [2] [fold] | Kd [2] [nM] | koff [2] [s⁻¹] | kon [2] [M⁻¹ s⁻¹]
B1 | 127 | 0.0228 | 180000 |  |  |  | 
B2 |  |  |  | 1 | 87.9 | 0.00319 | 36300
B3 |  |  |  | 0.39 | 34.7 | 0.00174 | 50300
B4 |  |  |  | 0.64 | 56.4 | 0.00326 | 57800
B5 |  |  |  | 4.9 | 431 | 0.0277 | 67700
B6 |  |  |  | 2.81 | 247 | 0.0139 | 56600
B7 |  |  |  | 0.9 | 79 | 0.0034 | 43200
B8 |  |  |  | 0.61 | 53.8 | 0.00319 | 59200
B9 |  |  |  | 0.66 | 57.8 | 0.00349 | 60800
B10 |  |  |  | 6.16 | 542 | 0.0254 | 47100
B11 |  |  |  | 1.39 | 122 | 0.00626 | 51100
B12 |  |  |  | 0.59 | 51.7 | 0.00311 | 60500
B13 |  |  |  | 0.59 | 52.1 | 0.00321 | 61800
B14 |  |  |  | 0.72 | 63.4 | 0.00322 | 51100
B15 |  |  |  | 0.84 | 73.7 | 0.00342 | 46400
B16 |  |  |  | 5.37 | 472 | 0.0601 | 126000
B17 |  |  |  | 3.08 | 271 | 0.0258 | 96800
B18 |  |  |  | 1.51 | 133 | 0.00993 | 76000
B19 |  |  |  | 4.69 | 412 | 0.037 | 90900
B20 |  |  |  | 3.81 | 335 | 0.029 | 86800
B21 |  |  |  | 0.53 | 46.6 | 0.00315 | 67600
B22 |  |  |  | 0.73 | 64 | 0.00301 | 47100
B23 |  |  |  | 0.54 | 47.7 | 0.0028 | 58800
B24 |  |  |  | 3.91 | 344 | 0.0221 | 64700
B25 |  |  |  | 1.93 | 170 | 0.0117 | 70800
B26 |  |  |  | 0.7 | 61.6 | 0.00313 | 50800
B27 |  |  |  | 0.88 | 77.4 | 0.00487 | 63000
B28 |  |  |  | 0.84 | 73.7 | 0.00573 | 77900
